Drawing on publication PMC4446614, this text covers release of inorganic phosphate (Pi) by GTP hydrolysis, A360 read every 5 min (EnzChek Phosphate Assay Kit; Rab7 700 nM, TBC1D15 300 nM, 22 °C); Rab or TBC1D15 alone as the blank for 1 substance.

The target of the assay is His-sumo-TBC1D15 (shark TBC1D15 from Chiloscyllium plagiosum) (Chiloscyllium plagiosum).

As for “MBP-Rab7a-WT (from UniProt P51149 1-207) (natural protein)”, the release of inorganic phosphate (Pi) by GTP hydrolysis, A360 read every 5 min (EnzChek Phosphate Assay Kit; Rab7 700 nM, TBC1D15 300 nM, 22 °C); Rab or TBC1D15 alone as the blank stood at 0.4 A360.
